For 18 sequences, protein production results are on record in a protein production outcome set (Wang et al. 2014).

A short description of this series: label from the status in PepcDB records.
Consider “MKFSKFGQKFTQPTGISQLMDDLGDALKSDQPVNMLGGGNPAKIDAVNELFLETYKALGNDNDTGKANSSAIISMANYSNPQGDSAFIDALVGFFNRHYDWNLTSENIALTNGSQNAFFYLFNLFGGAFVNEHSQDKESKSVDKSILLPLTPEYIGYSDVHVEGQHFAAVLPHIDEVTHDGEEGFFKYRVDFEALENLPALKEGRIGAICCSRPTNPTGNVLTDEEMAHLAEIAKRYDIPLIIDNAYGMPFPNIIYSDAHLNWDNNTILCFSLSKIGLPGMRTGIIVADAKVIEAVSAMNAVVNLAPTRFGAAIATPLVANDRIKQLSDNEIKPFYQKQATLAVKLLKQALGDYPLMIHKPEGAIFLWLWFKDLPISTLDLYERLKAKGTLIVPSEYFFPGVDVSDYQHAHECIRMSIAADEQTLIDGIKVIGEVVRELYDNK”, for which the protein production result is given as “not failed”. “MKFVQERRLTVKTTFSKEYKIFIFGLLISRIGDSLYTFALPWIAYQLTGSAVIMGSLFAVNVLPIVLFGPLVGVLVDRYDRKKLLWMADIINIILVSLVPILHALHLLEVWHLYVITFILAVMSMLFDVTTVTVIPHIAGASLTKANSLYQMVNQLASLFGPIIAGLFISFIGGFQVLWINVLSFIATLIAVIILPSMKNLNKKNTDKKTLQNVLNDLFDGFKWLINDRLNIALSLQAMVGNFGASAVLGVLMYYLLSTLNLTSAQSGYNYTLIGIGGLLGSLIAVPLEKKFRRGILIPLLLFFGALGLTFALWSTYWLAPGIAFGIAMTCNITWNTIVTSIRQETVPSNLQGRVLGFSRVLTRLSMPLGALVGGIISAYNPVFIFALAAFTKIIEVFIALCSPIRKL”: the protein production result was “failed”. With “MKFYTILSILFISFMLSACAVLQKSSPLQENKDFYILDTHTQKKISFEDMILELLKADVILLGEKHDEVKHKISQVMIFNALEGNLSSQNINFDVALEMLASTEQNHLDKAFKNKKTIKANELTNALNWDKVWKWKDYEQFVNVVFYSKSKILGANLSRSEITSIYNGAQPLKGYVSTTNEVKKQLFDIISLSHKLNPEENKELLDKLVEIQQFKDRRMADVLVHHVNKVLLLAGSYHTSKKIGIPLHIQDFKSSKKIVVVNLSYGEIDLKDSDYVLIYKGEELEHHHHHH”, the protein production result is listed as “failed”. The value for “MKGENMMVKLIALYEQPEDKQAFDEHYFNTHAPLTRKIPGLRDMKVTRIVGSPMGESKFYLMCEMYYDDHESLQQAMRTDEGKASGKDAMKFAGKLLTLMIGEEMDE” was “not failed”.

For “MKGFIDDANYSVGLLDEGTNLGNVIDNYVYEHTLTGKNAFFVGDLGKIVKKHSQWQTVVAQIKPFYTVKCNSTPAVLEILAALGTGFACSSKNEMALVQELGVSPENIIFTSPCKQVSQIKYAAKVGVNIMTCDNEIELKKIARNHPNAKVLLHIATEDNIGGEDGNMKFGTTLKNCRHLLECAKELDVQIIGVKFHVSSACKEYQVYVHALSDARCVFDMAGEFGFTMNMLDIGGGFTGTEIQLEEVNHVISPLLDIYFPEGSGIQIISEPGSYYVSSAFTLAVNIIAKKVVENDKFSSGVEKNGSDEPAFVYYMNDGVYGSFASKLSEDLNTIPEVHKKYKEDEPLFTSSLWGPSCDELDQIVESCLLPELNVGDWLIFDNMGADSFHEPSAFNDFQRPAIYFMMSFSDWYEMQDAGITSDAMMKNFFFAPSCIQLSQEDSFSTEA”, the protein production result was “not failed”. Then “MKGFNIYTDESTLVSIGDDAGVYEHNGIIWVYTVDIITPVVNDPYLWGAISTANALSDVYAMGGIPVNALAISCFNNCELDIEIFREVIRGALDKLREAKTVLLGGHTIDDKEPKFGLSVAGICPEGKYITQSGAQVGQLLILTKPIGTGILIKGLKEGILKEEDINEAIENMLALNDKARNLMLSLDATACTDVTGFGLLGHAWNICKNSNIGARIFFEKVPYYQLSENLVKKKIYPKGAIENLNFVKNYLKSNLDNWKLILLSDPVTSGGLLFTINKEKLEKIDETAKELEVNYWIIGETIAENVLEVL”, with “not failed”. Consider “MKGHIRERSPGHWAIVLDVGEVDPKTGKKKRKWHSFTGTKREAQKECSRLITVLDQGLYVEPTKQTVAEFLNEWLAFVKPSVAPKTHERYTEICRKGLSPLIGNVILSKLKTDRIDAAFTTALTAPRVDHRTKKDQREPLPPLAPRTVHHYRRVLVKALGQAVTWERLSRNPATATTPPKVERQKMLAYDVGQTATLLETLRPTRMFVPVLLAVTCGLRRGEILALRWRHLELGDNRRQMSIEESAEQTADGVRYKEPKSGRARTVALSASTVAELKAHRARQAEEQLRLGIRPDADSFVVAQVDGQPLQPRSLTHEWVRVLGKTSLPRIRFHDLRHTHATQMLSAGVHPKIASERLGHSNIGITLDLYSHVMPGMQADAAEQVDVALQAAISSERKGK”, for which the protein production result is “failed”. For “MKGIMVQGTASDVGKSLICTALCRIFARRGYKVTPFKSQNMSNNSYITVEGLEIGRAQGIQAEAAMEEASVYMNPILLKPRNDREAEIVCFGQAVDTVSGVKYRDGFYKRGLEAIKQALATLSQSFDMVVIEGAGSPVEVNLNDRELVNMKVAELADVPVILVADIERGGVFASLYGTLELLQPNERKRVVGIIVNKFRGDPELFSSGVQWIEQHLGVPVLGVLPHLPGVRIEGEDSLSKGQVTSVLPRDQSIDIAVLDLPYLSNYTDLEPFRYEEDVAIRFVSSVDALGRPDAIILPGTKSTFHDLQILKEKGFKERLHEYVTTDGTVVAICGGFQMLGHRLIDVAGSDTGIKGATIDGLDLAPVETRFAEKKKTVRSLGQLLHPFGTAKDIYGFEIHLGETDIVDPSIPAFLRVGNHTDGVYLHEGRLIGTYFHHLFFNDDFRSGWLNTLRRKKGLRERPTVELEKCRRASYDQLADEVERVLHVDSLLEKMERWGETSLEHHHHHH”, the protein production result is on record as “not failed”. Turning to “MKGITSLGSKWFVEFEKNNVHNVYDRIAEHFTKTRYRIWPGVELFLKQTSPLDTVLDVGCGNGKNLISYRNLFCIGIDRCVPLVKTCKQRQLETAVADILELPFQSEKFDIVLCIAVLHHLCTRERRILAIQELGRVLRPGGSCLLYVWAANENDGKDEVKNTKAREKMRFLDENKQEALIPWVVIDHEKKATQLEKNLKQPSTFTLERYYHLYRQGELEEECLQSNCFHIQHSYYEQSNWCVVLDKKS”, the protein production result was “not failed”.

As to “MKGKILDYSIQTSTGIIRAENQQRYSFSGSAWKEQQAPMRGMHVDFEIDAQDQVIDIFIDASDLEPAIQPSPTAVISDTVSKETHADNLSTSSDPLSSASLSHTHSQYSSSTDDQHQNLLANESKYSMMDWVMKCLRNYINFTGRARRKEYWFFQLWYAILSFVMLVLGDAFHWGDNLFLIATLLVALPAIAVSAHRLHDINRSGWLVLLNLVTIVGVLIVTFFFMIKEGDQTTNSYGPASK”, the protein production entry was “failed”.

For “MKGKVVSYLAAKKYGFIQGDDGESYFLHFSELLDKKDEGKLVKGSMVHFDPTPTPKGLAAKAISLPLEHHHHHH”, the protein production result was “not failed”.

Turning to “MKGLCSSDTRQYLPGHQLWEAPVQIRRYSAVIHHATKCQWGVIPSRTINVSLHQTRRMRVAAVGIGGAGGRIVERLWQDNERRETTYLGAACAVDTDTEALDELDALPADRRYAFGLSETNGTGTNGDRTSGTAAIEDERLEVRRAIDELVTSDIDAVVLVAGLAGGTGSGATAHIADALREVYSIPVYCLSVLPAGRDDDAAANTMQALRALESTVDGQILFDNEAWLGSGQTVESASETLNETIVARLGALFAAGEATAPDAVGQSVVDASEIINTLSDAGFTTLGYASQDLQTGAGSGDGTVIDQLKNRFLGDNADDVDEIEAYNAVETTLRRAVRGKLTAQCELDSADRALAVFAGPPAWLIRDAVTDGRRWLTEELQSPLEHHHHHH”, the protein production entry was “failed”. With “MKGNFHSTYDQGFARVAACTTTVHIGDPASNVAGILDTCRELSSRSVAIAVFPELCLTGYAIDDLLLQDVVLDAVLDAIETVRQASRSLFPVIIVGAPLQRGNRLYNCAVVIHRGQVLGVVPKSHLPNYREFYEKRHFAVGAGTTGMIDLSGRQKSHAASTEIPFGPDQLFRATDLPDLTFHVEVCEDLWVPVAPSSQAALAGAVVEVNLSGSPITVGKSRQRHELCKVTSSRNLQAYVYAAAGPGESSTDLSWDGQTMIYENGSLLAATDRFSPEPGYCLADIDLDLLRQERLRQGSFDDNALAQPAQAPWRTTIFTLDPPHDDIGLERPVNRFPFVPNDPDQLAQDCYEAYNIQVYGLRRRLESMGSPKIVIGVSGGLDSTHALLVAAKAMDQMGRPRTDILAFTMPGFATTDHTKNNALDMCRALGIPCEVLDIRPAATQMLKGMSHPAGDGAEVYDVTFENVQAGLRYDYLFRIANQRGGIVLGTGDLSELALGWCTFGVGDQMSHYGVNTGVPKTLIQHLIRWCISSGQFNEATNVVLESVLGTEISPELVPARPGEKIQSTQAKIGPYELQDFTLYHLLRHGMRPSRIIFLSHHAWRDASVGSWPPGFRDEDRHSYDLSAIKDWTRLFLRRFVGNQFKRSTLPNGPKVVAGGSLSPRGDWRMPSDAVVRAWLDDLETVPDERF”, the protein production entry is “failed”. “MKGTKKLAWLGLLLVLPVLAQATTVTYSALTVRELGNFLMNLPTGFYAIAPAAAKNMMDTVDVFILDVREPNEFAGERIQGAVNIPIRDLPKRVGELPKGKPIIVYCKVGHRGSMAMMFLRGQGYNVQSISGGLDGWKNAGLPVVK”: the protein production result is given as “failed”. In the case of “MKGTNTIYIIISSILLAYIMQIFVLYPFTAVAIGIPLGLLSRKYSAIGGFLIGFLSSLSLYLIYPINAVSKIAEIIGQLIGINPFLVVLLYPLIYGTISLISALLFYYIVRLNK”, the protein production entry was “failed”.

With “MKHCLKFALLAGFALLLTACGFHLRGLGGSLKPLPFSTMYLEATGKSIEADLRTVFARDPKLSVMSEPKGAQAVVSVVSENQSKDILTINTGGRINEYQLTYTVVVRTVIGGVPVDPDMVVTVRRSLNYSDNQVLGKQQEEDLLWADARRDAAEQIVRRLAYLKVPAAPLAGPVSVKPDAVPQPLEHHHHHH”, the protein production entry was “not failed”. In the case of “MKHIHSYYSPNNLYNKIIEGLNNLGKDLSSVTPDDLQPVDEFHIRGDIATKELIELGNFTPDMHILDVGCGVGGSTRRLSHETGCHVTGIDLSDEYIDAAERLTQLLNMQARVKFNVGSALELPYADNTFDGAWSIQMNMNVEDKLGWLKEMYRVLKPGARAVLYEVCGHEEKTIYFPVPWAQDSSMSFLIPKEAFRDLIASTGFKIEVWNDKSDLAQKAFARMREPTGESTLPELGLHMLIGNDIKTKAYNMRRNLDDERISLIEILAIKPS”, the protein production entry was “failed”. As to “MKHLPTTLLLSTLAITLSAQAHNLVPAPKQTQSVLIKNATVHTVIQGVLTNTDVLIENGKISALGPQLSTNTTASTQVVDASGKHLYPGLIALDTSLGLVEIEMVRPTVDNAEVGDVNPQISAASAYNPDSELLPTIRYNGITHAQIVPSGDGLAGQSVVVDLDAWTIEDALQPNEGQFHVYWPQIKRMPEDEKEKAKAIEKNQQAIDKLITAFEDGYRYFLSQNAQDTDNWPNLRWQAMLPLYQGKATLFAHADSVSQIEQVIALTKKYQFKLVIVGGYDAWRLASSLREVNASVIYPHTLSLPKRKDEPVDLPFKIPSLLANAGIPYALGFSSDWNSRNLPYAAGYSAAYGVTPEQALKSVTLDAAKLLGIADLGAIAVGYQGSVVLSDGDILDPMSSKIDAIWIEGRQIDLNNRHQQLYQKYLKR”, the protein production result is on record as “failed”.
